This note sets out measurements from patent US20130150287A1.

The target of this assay is integrin overexpressed on cancer cells. Put plainly: cell-based or functional assay.

B1: RGD peptide (…) (peptide)
peptide: CDCRGDCFC
With B1, the reduction of cellular uptake of the recombinant protein particle by B16F10 cells after preincubation with 100-fold molar excess of RGD peptide was determined as 40%, the reduction of cellular uptake of the recombinant protein particle by B16F10 cells after preincubation with 200-fold molar excess of RGD peptide was 95% and the reduction of cellular uptake of the recombinant protein particle by B16F10 cells after preincubation with 400-fold molar excess of RGD peptide is 95%.
